# Measured values: patent US7125704B2, “Gluconate dehydratase” (priority 2003, dated 2006)
# Assay: Thermostability and storage stability of purified gluconate dehydratase (remaining activity after standing)
# Assay type: physicochemical, Achromobacter xylosoxidans strain ATCC 9220
# Description: The gluconate dehydratase activity in the present invention produces 2-keto-3-deoxy-D-gluconic acid, using D-gluconic acid as the substrate. The activity can be determined as follows: A reaction mixture in an amount of 1 mL containing […] of a Tris buffer (pH 8.5), 40 μmol of sodium D-gluconate, 1 μmol of magnesium chloride, and the gluconate dehydratase is allowed to react at 37° C. for 10 minutes, and 200 μL of 1 M hydrochloric acid solution is added to the reaction mixture to stop the reaction; and then, the amount of the resulting 2-keto-3-deoxy-D-gluconic acid is determined by high-performance liquid chromatography (column: Shodex Asahipak NH2P-50 4E, produced by Showa Denko, column temperature: 40° C., mobile phase: 50 mM sodium dihydrogen phosphate solution, flow rate: 1 mL/min, detection at 210 nm). An amount of enzyme for catalyzing the production of 1 μmol of 2-keto-3-deoxy-D-gluconic acid for one minute is defined as 1 U. The amount of protein may be determined by a dye-binding method using a Bio-Rad protein assay kit.
# Samples of the purified gluconate dehydratase solution prepared in Example 3, which was dissolved in the 30 mM Tris buffer (pH 8.5) containing 1 mM sodium D-gluconate and 1 mM magnesium chloride, […] Another sample was allowed to stand at 4° C. for 7 days and 30 days. […]
molecule,measurement,setting,value
"Gluconate Dehydratase: heat-resistant gluconate dehydratase purified from Achromobacter xylosoxidans strain ATCC 9220, amino acid sequence SEQ ID NO:2 (protein, Achromobacter xylosoxidans) MTDTPRKLRSQKWFDDPAHADMTAIYVERYLNYGLTRQELQSGRPIIGIAQTGSDLAPCNRHHLALAERIKAGIRDAGGIPMEFPVHPLAEQGRRPTAALDRNLAYLGLVEILHGYPLDGVVLTTGCDKTTPACLMAAATVDIPAIVLSGGPMLDGWHDGQRVGSGTVIWHARNLMAAGKLDYEGFMTLATASSPSIGHCNTMGTALSMNSLAEALGMSLPTCASIPAPYRERGQMAYATGLRICDMVREDLRPSRILTREAFENAIVVASALGASSNCPPHLIAMARHAGIDLSLDDWQRLGEDVPLLVNCVPAGEHLGEGFHRAGGVPAVMHELLAAGRLHADCATVSGKTIGEIAAGAKTHDADVIRGCDAPLKHRAGFIVLSGNFFDSAVIKMSVVGEAFRRAYLSAPGDENAFEARAIVFEGPEDYHARIEDPALNIDEHCILVIRGAGTVGYPGSAEVVNMAPPSHLIKRGIDSLPCLGDGRQSGTSASPSILNMSPEAAVGGGLALLRTGDRIRVDLNQRSVIALVDEAELARRRQDPPYQPPPAQTPWQELYRQLVGQLSTGGCLEPSTLYLKVVETRGDPRHSH",Remaining activity (%),"buffer, 168 h",100%
same,Storage stability of the activity,"storage at 0° C. in Tris buffer (pH 8.0 to 8.8), 1 mM sodium D-gluconate, 1 mM magnesium chloride (same conditions as the M250 report)",maintain the activity stably for one month
